The target of one series is SaFDS (Santalum album, UniProt E3W209). Nature of the series: GC / GC-MS of (E,E)-farnesol after alkaline phosphatase. The format is biochemical. Particulars: 25 mM HEPES, 10% glycerol, 5 mM DTT, 10 mM MgCl2, pH 7.4, 30 °C.
In another series the target is SaSS (Santalum album, UniProt E3W202, Y539W). Briefly: GC / GC-MS product analysis. The format is biochemical. Particulars: data not shown; mutant sequence NCBI JQ690659; assay form of the mutant not described.
Substrate in series [1]: CC(C)=CCC/C(C)=C/CC/C(C)=C/CO[P@@](=O)(O)OP(=O)(O)O
Briefly: GC quantification of product, steady-state kinetics. It is filed as biochemical, Santalum album. Particulars: apparent Km, HEPES buffer, 30 °C, 5 min, 5 μM enzyme. An excerpt: GC quantification of product, steady-state kinetics on SaSQS2

Substrate in series [2]: CC(C)=CCC/C(C)=C/CC/C(C)=C/CO[P@@](=O)(O)OP(=O)(O)O
The series is described as above. It is filed as biochemical, Santalum album. Particulars: apparent Km, HEPES buffer, 30 °C, 5 min, 5 μM enzyme. The text has this:
GC quantification of product, steady-state kinetics on SaSS
The source holds these as a separate data set.

Substrate in series [3]: CC(C)=CCC/C(C)=C/CC/C(C)=C/CO[P@@](=O)(O)OP(=O)(O)O
Described as above. It is filed as biochemical, Santalum album. Particulars: apparent Km, HEPES buffer, 30 °C, 5 min, 5 μM enzyme. An excerpt: GC quantification of product, steady-state kinetics on SaBS
The source holds these as a separate data set.

Substrate in series [4]: CC(C)=CCC/C(C)=C/CC/C(C)=C/CO[P@@](=O)(O)OP(=O)(O)O
The description is as above. Particulars: apparent Km, HEPES buffer, 30 °C, 5 min, 5 μM enzyme. It is filed as biochemical, Santalum album. An excerpt:
GC quantification of product, steady-state kinetics on SaSQS1
This is another data set of the same source.

SaFDS, sequence (E3W209 entry or part of it): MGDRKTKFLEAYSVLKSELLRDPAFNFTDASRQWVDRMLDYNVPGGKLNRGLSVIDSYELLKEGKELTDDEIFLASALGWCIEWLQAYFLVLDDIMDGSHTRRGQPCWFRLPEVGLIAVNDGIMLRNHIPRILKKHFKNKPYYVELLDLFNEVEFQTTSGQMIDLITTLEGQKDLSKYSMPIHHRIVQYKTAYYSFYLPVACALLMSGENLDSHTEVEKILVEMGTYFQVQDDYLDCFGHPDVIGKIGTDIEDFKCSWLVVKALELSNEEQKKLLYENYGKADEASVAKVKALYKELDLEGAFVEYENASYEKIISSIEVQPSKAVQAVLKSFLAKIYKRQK
SaSS, sequence (E3W202 whole entry Y539W): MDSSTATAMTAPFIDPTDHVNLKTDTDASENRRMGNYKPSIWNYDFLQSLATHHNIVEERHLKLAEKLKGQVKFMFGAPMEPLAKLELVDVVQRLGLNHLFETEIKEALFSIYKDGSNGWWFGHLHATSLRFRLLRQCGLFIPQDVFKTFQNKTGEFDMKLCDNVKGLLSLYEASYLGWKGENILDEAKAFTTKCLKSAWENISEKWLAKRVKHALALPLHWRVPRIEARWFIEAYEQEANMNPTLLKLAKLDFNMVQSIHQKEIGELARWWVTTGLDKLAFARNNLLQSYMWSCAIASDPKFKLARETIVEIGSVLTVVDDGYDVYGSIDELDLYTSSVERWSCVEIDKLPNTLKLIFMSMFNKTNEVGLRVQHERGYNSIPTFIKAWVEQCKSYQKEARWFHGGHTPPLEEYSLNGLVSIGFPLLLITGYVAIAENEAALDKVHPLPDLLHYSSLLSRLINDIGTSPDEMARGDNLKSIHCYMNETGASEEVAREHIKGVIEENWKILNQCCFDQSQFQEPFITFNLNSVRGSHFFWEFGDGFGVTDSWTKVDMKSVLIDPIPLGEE

For `CC(C)=CCC/C(C)=C/COP(=O)(O)OP(=O)(O)O` [GPP], the “GC / GC-MS of (E,E)-farnesol after alkaline phosphatase” value on SaFDS (with IPP) is “Incubation of recombinant SaFDS with equimolar concentrations of IPP and GPP”.

Turning to `C=C(C)CCOP(=O)(O)OP(=O)(O)O` [IPP], the “GC / GC-MS of (E,E)-farnesol after alkaline phosphatase” value at SaFDS (with GPP or DMAPP) is “Incubation of recombinant SaFDS with equimolar concentrations of IPP and GPP”.

With `CC(C)=CCC/C(C)=C/CC/C(C)=C/COP(=O)(O)OP(=O)(O)O` [(E,E)-FPP], the “GC / GC-MS product analysis” value on SaSS is “a mutant of SaSS (Y539W, NCBI: JQ690659) was able to cyclize (E,E)-FPP”.

B1: SaSQS2 (Santalum album) (protein)
chain: MASVIVEPIRCNNDNDVISTVVDDSSVVRRAANYPPNLWDYEFLQSLGDQCTVEEKHLKLADKLKEEVKSLIKQTMEPLTKLEFIDTVRRLGLKYQFETEVKEAVVMVSKYENDAWWIDNLHATSLRFRIMRENGIFVPQDVFERFKDTDGFKNQLCEDVKGLLSLYEASFLGWEGEDILDEARTFATSKLKSIEGKIPSPSLAKKVSHALDLPLHWRTIRYEARWFIDTYEEEEDVNLTLLRYAKLDFNIVQSFHQKEIGRLSRWWVGTGLDKMPFARNGLIQSYMYAIGMLFEPNLGEVREMEAKVGALITTIDDVYDVYGTMEELELFTDITNRWDISKADQLPRNIRMPLLTMFNTSNDIGYWALKERGFNGIPCTAKVWSDQLKSYTKEAKWFHEGHKPTLEEYLDNALVSIGFPNLLVTSYLLTVENPTKEKLDYVNSLPLFVRASCILCRIINDLGTSPDEMERGDNLKSIQCYMNEAGASQEVAREHIEGLVRMWWKRLNKCLFEPSPFAEPFLSFTVNVVRGSHFFYQYGDGYGNAESWTKKQGMSVLIHPIPLNEE
As a reminder, the Km is the substrate concentration at which the rate is half of its maximum. The term kcat denotes the maximal rate divided by the concentration of active sites. What is called kcat/Km is the turnover number divided by the Michaelis constant. As to B1, in series [1], the Km came out at 15.30 ± 3.83 µM, the kcat is 0.00233 ± 0.000167 s⁻¹ and the kcat/Km amounted to 150 M⁻¹ s⁻¹.

B2: SaSS (Santalum album) (protein)
chain: MDSSTATAMTAPFIDPTDHVNLKTDTDASENRRMGNYKPSIWNYDFLQSLATHHNIVEERHLKLAEKLKGQVKFMFGAPMEPLAKLELVDVVQRLGLNHLFETEIKEALFSIYKDGSNGWWFGHLHATSLRFRLLRQCGLFIPQDVFKTFQNKTGEFDMKLCDNVKGLLSLYEASYLGWKGENILDEAKAFTTKCLKSAWENISEKWLAKRVKHALALPLHWRVPRIEARWFIEAYEQEANMNPTLLKLAKLDFNMVQSIHQKEIGELARWWVTTGLDKLAFARNNLLQSYMWSCAIASDPKFKLARETIVEIGSVLTVVDDGYDVYGSIDELDLYTSSVERWSCVEIDKLPNTLKLIFMSMFNKTNEVGLRVQHERGYNSIPTFIKAWVEQCKSYQKEARWFHGGHTPPLEEYSLNGLVSIGFPLLLITGYVAIAENEAALDKVHPLPDLLHYSSLLSRLINDIGTSPDEMARGDNLKSIHCYMNETGASEEVAREHIKGVIEENWKILNQCCFDQSQFQEPFITFNLNSVRGSHFFYEFGDGFGVTDSWTKVDMKSVLIDPIPLGEE
Turning to B2, in series [2], the Km was 0.59 ± 0.24 µM, the kcat amounted to 0.00833 ± 0.0005 s⁻¹ and the specificity constant (kcat/Km) came out at 15000 M⁻¹ s⁻¹.

B3: SaBS (Santalum album) (protein)
chain: MDAFATSPTSALIKAVNCIAHVTPMAGEDSSENRRASNYKPSSWDYEFLQSLATSHNTVQEKHMKMAEKLKEEVKSMIKGQMEPVAKLELINILQRLGLKYRFESEIKEELFSLYKDGTDAWWVDNLHATALRFRLLRENGIFVPQDVFETLKDKSGKFKSQLCKDVRGLLSLYEASYLGWEGEDLLDEAKKFSTTNLNNVKESISSNTLGRLVKHALNLPLHWSAARYEARWFIDEYEKEENVNPNLLKYAKFDFNIVQSIHQRELGNLARWWVETGLDKLSFVRNTLMQNFMWGCAMVFEPQYGKVRDAAVKQASLIAMVDDVYDVYGSLEELEIFTDIVDRWDITGIDKLPRNISMILLTMFNTANQIGYDLLRDRGFNGIPHIAQAWATLCKKYLKEAKWYHSGYKPTLEEYLENGLVSISFVLSLVTAYLQTETLENLTYESAAYVNSVPPLVRYSGLLNRLYNDLGTSSAEIARGDTLKSIQCYMTQTGATEEAAREHIKGLVHEAWKGMNKCLFEQTPFAEPFVGFNVNTVRGSQFFYQHGDGYAVTESWTKDLSLSVLIHPIPLNEED
As for B3, in series [3], the Km was found to be 12.59 ± 1.40 µM, the kcat turned out to be 0.000667 s⁻¹ and the kcat/Km was 50 M⁻¹ s⁻¹.

B4: SaSQS1 (Santalum album) (protein)
chain: MDLCQIPPTSPISPSVPFNGDDSSVVRRSANYPANLWDYDFLQSLGRHSSVTEEHVGLAEKLKGEVKSLITGPMEPLAKLEFIDSVRRLGLKYQFETEMKEALANISKDGYDSWWVDNLRATALRFRLLRENGIFVPQDVFERFQNKETGKFKNELCEDVKGLLNLYEASFLGWEGEDILDEARTFSTAQLKNVEGKISSPNLAKIVHHALDLPLHWRAIRYEARWFIDIYEDEEDMNPTLLKYAKLDFNIVQSFHQAEIGRLARWWVGTGLDKLPFARNGLIQSYMYAIGMLFEPHLGEVREMEAKVGALITTIDDVYDVYGTMEELELFTDITERWDINRVDQLPRNIRMPLLTMFNTSNDIGYWALKERGFNGIPYTAKVWADQLKSYTKEAKWFHEGHKPTLEEYLENALVSIGFPNLLVTSYLLTVDNPTKEKLDYVDSLPLFVRASCILCRIINDLGTSPDEMERGDNLKSIQCYMNETGASQEVAREHIEGLVRMWWKRLNKCLFEPSPFTEPFLSFTINVVRGSHFFYQYGDGYGNAESWTKNQGMSVLIHPITLDEE
As to B4, in series [4], the Km stood at 11.12 ± 2.80 µM, the kcat stood at 0.00583 ± 0.0005 s⁻¹ and the kcat/Km stood at 500 M⁻¹ s⁻¹.

The values are drawn from paper PMC4432371, “Functional Characterization of Novel Sesquiterpene Synthases from Indian Sandalwood, Santalum album” (Scientific Reports, 2015).
